Molecular target: T1, CD4 on primary human peripheral blood mononuclear cells (PBMCs) (human, UniProt P01730 26-458)
T1 construct: whole, on cells
Experiment: flow cytometry of phage-stained human PBMCs
Procedure: Harvested cell lines or thawed PBMCs (see PHAGE-ATAC workflow for harvest and thawing protocol) were resuspended in FC buffer (see above) and incubated with respective phage nanobodies for 20 min on a rotator at 4° C. Cells were centrifuged and washed with cold FC buffer twice to remove unbound phages (centrifugation steps all were 350 g, 4 min, 4° C.). […] Cells were incubated for 10 min on ice, washed twice in FC buffer and resuspended in Sytox Blue (Thermo Scientific) containing FC buffer for live/dead discrimination according to manufacturer's instructions. […] Stained cells were analyzed using a CytoFLEX LX Flow Cytometer (Beckman Coulter) at the Broad Institute Flow Cytometry Facility. Flow cytometry data were analyzed using FlowJo software v.10.6.1.

B1: PAC-tagged anti-CD4 nanobody-displaying M13 phage (phagemid pDXinit-CD4Nb-PAC) (VHH)
VHH: EVQLVESGGGSVQPGGSLTLSCGTSGRTFNVMGWFRQAPGKEREFVAAVRWSSTGIYYTQYADSVKSRFTISRDNAKNTVYLEMNSLKPEDTAVYYCAADTYNSNPARWDGYDFWGQGTQVTVSS
notes: also called anti-CD4 pNb; anti-CD4 phage nanobody; not shown: M13 phage coat protein p3, from phagemid pDXinit; 12-amino acid PAC-tag
  binding result: binds

— patent US20220090089A1 (BROAD INSTITUTE, published 2022)
